Assays:
[1] = oral administration, human C5aR1 transgenic mice; cited from earlier work
[2] = biological target: T1, C5aR1 (Homo sapiens, UniProt P21730); settings: cited from earlier work
T1 sequence (P21730 1-350): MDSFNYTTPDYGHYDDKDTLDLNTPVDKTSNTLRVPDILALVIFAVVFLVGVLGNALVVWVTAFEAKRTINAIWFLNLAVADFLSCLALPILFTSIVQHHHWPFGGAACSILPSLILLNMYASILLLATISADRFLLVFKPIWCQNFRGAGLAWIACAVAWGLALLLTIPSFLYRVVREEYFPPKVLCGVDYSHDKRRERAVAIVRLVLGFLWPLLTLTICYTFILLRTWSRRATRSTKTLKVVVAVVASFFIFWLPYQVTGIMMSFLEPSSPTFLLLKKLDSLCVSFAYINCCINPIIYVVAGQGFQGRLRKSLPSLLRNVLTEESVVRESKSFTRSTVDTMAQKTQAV

[3] = biological target: T2, human C5aR1 transiently expressed on the surface of Expi293 cells (Homo sapiens, UniProt P21730, K279N); assay: Cell surface binding (flow cytometry), Expi293 cells transiently expressing human C5aR1; settings: staining with 100 nM of antibody
T2 construct: expressed in transfected cells; host or cells: Expi293 cells, transient
T2 sequence (P21730 with tags, fused parts or gaps K279N limits assumed): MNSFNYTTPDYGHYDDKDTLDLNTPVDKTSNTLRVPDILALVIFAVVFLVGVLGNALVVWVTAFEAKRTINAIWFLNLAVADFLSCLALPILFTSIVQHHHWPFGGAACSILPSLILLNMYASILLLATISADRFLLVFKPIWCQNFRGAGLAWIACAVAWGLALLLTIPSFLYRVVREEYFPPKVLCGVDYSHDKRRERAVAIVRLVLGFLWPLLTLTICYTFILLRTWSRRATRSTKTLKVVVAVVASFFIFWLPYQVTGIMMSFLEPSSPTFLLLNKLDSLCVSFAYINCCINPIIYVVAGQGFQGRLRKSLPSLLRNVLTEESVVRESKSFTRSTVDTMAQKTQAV
Method: (§1) Follow up screening to ensure specificity was performed by measuring cell surface binding to cells expressing, for example, human C5aR1, human C5aR2, mouse C5aR1, and control cells that were mock transfected. Briefly, cell surface binding was performed on various C5aR1 expressing cell lines (transiently expressed Expi293 cells, stable C5aR1-U937 cells, and neutrophils isolated from whole blood). Briefly, a titration of antibody diluted in flow buffer (1×PBS with 2% fetal bovine serum) was incubated with cells for 1 hour at 4° C. Cells were washed twice with flow buffer. Anti-human-APC secondary antibody was diluted 1:400 in flow buffer and incubated with cells for 30 minutes. Cells were washed twice with flow buffer and resuspended in 100 μL of flow buffer. Fluorescence was measured using the iQue Screen Plus flow cytometer.

[4] = system: control cells that were mock transfected; assay: Cell surface binding (flow cytometry), mock transfected Expi293 control cells; settings: staining with 100 nM of antibody
Method: as §1

Molecule: Cc1ccc(NC(=O)[C@H]2CCCN(C(=O)c3c(C)cccc3F)[C@H]2c2ccc(NC3CCCC3)cc2)cc1C(F)(F)F [Avacopan, avacopan]
- severity of anti-MPO NCGN [1]: reduced the severity of anti-MPO NCGN

B1: C5a: complement component 5a, agonist of C5aR1 (protein, UniProt P01031 678-751, looked up)
C5a anaphylatoxin: TLQKKIEEIAAKYKHSVVKKCCYDGACVNNDETCEQRAARISLGPRCIKAFTECCVVASQLRANISHKDMQLGR
modifications: C5a anaphylatoxin
notes: complement component 5a, agonist of C5aR1
- on rate for C5aR1 [2]: about 4.8e8 M^−1min^−1

B2: Clone_11v2 (antibody, V domains shown)
VH: QVQLQQSGPELVKPGASVKISCKASGYSFSSSWMNWVKQRPGKGLEWIGRISPGDGDTRYSGKFKGKATLTADKSSSTAYMQVTSLTSEDSAIYFCVRFLITSTRYVMDYWGQGTTVTVSS
VL: DVVMTQTPLSLPVSLGDQASISCRSSQSLVHSNGNTYLHWYLQKPGQSPKLLIYKVSNRFSGVPDRFSGSGSGTDFTLKISRVEAEDLGVYFCSQSTLVPPTFGGGTKLEIK
- Cell surface binding, Human C5aR1, geometric mean fluorescent intensity [3]: 310,187
- Cell surface binding, Mock transfection, geometric mean fluorescent intensity [4]: 4,976 Clone_454
